Test: protease stability score; higher = more stable; yeast display proteolysis, trypsin and chymotrypsin;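 also: relative to predicted unfolded state with 0 unfolded-like and 1 meaning tenfold more protease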

First: TEEDHKAFTMVELFLNALTTGDERTLEKLVDPNVRVNIDGRDVHGMSILIRWREHLRFEFREVNNKRSELQGEKLHVDSEVDRHIRIGDKEDREHIRIHFHLLKINGRWFIEEVRML
Second: SEEDKHLRKMAQDILEWLFTGNWKDFFDNLDPNYRVEWNGKERIGRDLTRRMLETIRREMRLHDIKIHHFTAIDGVIHIDGSEYIHVDGVTTEVKTHIHIVIFNGRIKRIEFHDH
The protease stability score of the first is lower: 1.36 for the first, 1.48 for the second.

Compared with “DEEEERTKHHFELLFKLWTTGDEDSLSHLADPNVRVHVDGKDFHGWEDMKDFMREWIERFKNVRLELKHFEAQGDKASSEIKIHYGDKHVTEFIEIILFNGRLHEIRRLFKRD”, “SEIEEFTRKLLEMFLEAFLTGDWKFLWELADPNVRLNVGDKHAHGMESSKHLLDEWLTEMRLRDMHVHSVHFQGEKRDNNGKEHRIYGDKVRLWDVHLHLVIVNGRLKEVNIEER” is higher in protease stability score: 1.01 for the first, 1.31 for the second.

Compared with “DDTEDLATELSKIIRTVLRTGDWHTLRELADPNMRLNVNGQERHGMDLVREIHLNAGWQRVTVIIRHLHIDENEMHLETETRYDGQKHRVHVHVKKINGRWVIDFIIIH”, “DEEHEFMRKMSEEFVHIWLTGDEERLIKLLDPNAKLNIDGVEHHGWKEVHRYLKELKEELGVDHFHVRRITIRYIDGVAISIVHYESHINGRHHELEIHNVVNKIDGRWHLQSIHIHFH” is higher in protease stability score: 1.09 for the first, 2.16 for the second.

Going from “DEDDEDADNAIRLIVHSMLTGNEDFFSRLLDPNVRLDYNGVEFIGREDVVRFWNQMRFEFRVEVRRTSSQGDKVNWDIRLRIILHFNGKRHDRLHDTVLISRKYNGKWHVEQIEVR” to “EEDEEYLRKHYTDLKHALETGDEDRIMELFDPHVRIDDEDHNLHGREELFRWLHDLGIDHHELRIDDFKIDGDKVSIDGHLRVIVNGRDIHFRTIIRIKKVNGQWRLTHLEIR”, the protease stability score rises from 1.54 to 1.94.

Going from “DEDDKRSEKYLQKLLTDTHTGDETAYRDLADPHVRIEFNGREWHGWKRAHEVFHRILEEMRLKDLRIEDVRKQGEKVRLHIRLHSTVDGKQVDLELEIILLKVNGQWYIKDVTLI” to “KEEEDIVRHVVEKFIKNLLTGDFHSLMHMADPNVLVNFNGKENIGRELAVKTIERWWKELGVKHFEHFDLHDITIFDGKASLDTRVHGEINGKVHDFKTRIIIQKINGRWTVHSVEFE”, the protease stability score rises from 0.886 to 1.22.

First: SEEERLIIEVMKDFEHSHRTGDWRRILKNLDPNTRHEFNGVEFHGMEEVVRFWIELKDEIRIHHIEIESINHVGDKAHMNVRRDTEVNGKREDVRVQVDLRVINGRIKSVIIRIE
Second: DEIEKVLEISYRLMHESWRTGDEDHLRDLIDPHARVIIDGRTYHGRDAMHLFVDELLREFGITQVDIEMKRIHVQGDKVESHHDINFNGQRVEVDISFHKVNGRWIAESVTWR
The protease stability score of the first is lower: 0.844 for the first, 1.24 for the second.

First: DEHEQFLRDIAIILIHAHLTGDWKRLEEMLDPNVRFEIDINGRSIEQHGRELYLRWVRKIHNEIWFRIEIEDISVINGRASVKVRLDLNVGDKVLHTRIHIEVVVIDGVLRSESIRVR
Second: DEEDQDWERILEELLRSLLTGDEEFIRRLIDPNVRMHIKQGDKRINLHGRDAIEKLLELLHRRIKGVRIEIKRHDIQGDKIYVDGVINIDGKEFKIIIHIIVINGRLHTVSFETE
The protease stability score of the first is higher: 2.69 for the first, 1.9 for the second.

Going from “DEIEHESEEILRMWLHAIKTGDEEFLKQYIDPHAKLDINGVEFHGREHIVRFIVELRMHDHRVQDSRKVGNKVILHTRVDSIIGDKRIDTHVTIIVRKIDGKWRLEEYRVS” to “SKDEKTLSHFIKFLEDVEKTGNFEDFYELMDPDAKLVVNGVEHHGRDEFTRFIKEFMDRVDHIHYTDVHHIILQGDKVIIDAKVRGVWDGVERELRVKIIIVKINGRWYLKSFEEE”, the protease stability score falls from 2.55 to 1.87.

First: SEEREDIREIIEILLHHIHTGDWREVTNLMDPNALLVYGDKIFIGREEFHKVIKRHSEEWRIHHVELKDIEVQGNKAHVDGRLDGEIDGRRVTLTTEIIAVKINGRWHVHEIVLK
Second: DEEDKKVKYFLNEWLHAVKTGDEEHLKRLADPRTYEQVGDKHYHGRETFRRFLHDLLEEMRFHRIHIKFSQMVNGVFYVNGELDGTFDGRRHRTDMRLEFEVVNGRIHELRIEIV
The protease stability score of the first is higher: 1.23 for the first, 1.18 for the second.

Going from “SEEDKEREEWLHLLKHSLETGDEQALSRMADPHVRLVVGDKELHGREDYERHWREFLERFPNVTTEVRLRRVEIYGDKIRIDTELRIHVGDKHHSLRVDLIMVKVDGRWFMKEIRIK” to “SEEHEFWERLARLTLHWLETGDWDKMNKNADPNVRTEVNGQELHGRESTTEIMRRDEKFFKNARFHLESMDVQGDKVHLIFEVDYNGRTIRRHLDWVIINGRFKEIRVEIR”, the protease stability score falls from 1.21 to 1.17.

Compared with “DTEEEILKQYLELLRRQHATGDEDSIKHLVDPNVRNDVNGVDIHGRDRMREWIERHRHNLGIDHIEIRITDLHIIDGRIHLDVRVFYRVDGRTIHMEIYVVLVKVDGRWSVKSRHLH”, “DEEEKHHHELFKEWSRSLITGDFTTMERMIDPNARFEINGVEFHGMDTLRKFTEHLGWEIEHVHDHRIEVYDGVDHVDTKIRGRIDGRRTETRARIILFIYDGRIKSIHEETK” is lower in protease stability score: 0.911 for the first, 0.631 for the second.

Going from “SDEEHVSRIALEIDIWLKETGDEHLLRHYLDPDTRSHFNGRSVHGMDILIKILHHWRIHDLEVKRMHLVGDFVELDIRVDGTFNGRRINMEQIIHVEKIDGQWHLKEVRIH” to “SEEEEDAEEFSRLFAELMKTGDEESLHRLADPDVRLHYGDKDHHGREQYTESWKRILDELGVDNVRIELKSVRVINGVVYVDSLVRVGDKTFRLIVIFRKINGRWRLESVKVE”, the protease stability score falls from 1.54 to 1.29.

Compared with “DEREEDAREAEEIILEDLRTGDWERISRNFDPNVRMHVGDKKYHGREDAIREIKRLMSDMGIKHHSITDSRLQGEWLFLHVEVHFNGRTHDVEIIMIKVNGKWVFKEVRIG”, “DELAEYAKEVIERIDHSITTGDERSVKRLLDPDVKLLIGDKELHGREDWEEWMKRIDHVSVRDSRIKEVKVYDGRLRIDGHKRMYYFNENEEREHTTRVVIILLKIDGRWVMHSVHFI” is lower in protease stability score: 1.99 for the first, 1.4 for the second.

Going from “SEDEHAARWMTEDLERHTETGDEHRLTELIDPHAKLIFNGREYHGWEDYVKLFRELRVRRLEIKRVEVQGDKLFIDSTLRGNVNGREIDFEIHFVTHKINGRWKVHSVEII” to “SHEDHLVDLAFEVWRRDLETGDEDLLKKLVDPNVRIIQGDKMYHGMDDYVERLRRIWEELGVDYIQVHLEHSRQVNGVAELDVRLKLRIGDKRREYRLHLHIEKVNGKWQIKQINIQ”, the protease stability score falls from 1.69 to 0.277.

Compared with “SELKEILRKAIELLLRLWVTGDEEELLELFDPNVKLVIGDKIFIGREEFEKVSRHARVKRSDINDFRVQGDKITYDTRMDGHVNGKDIDTTVDIIAVKIDGRWFNHSIIVH”, “DEDREQYREIMSHIWHSIHTGDEETQEDMADPDARFIIGDKTFIGWKQFYEKLREIRIHIDHVHIRHIEVQGDKFRVEFQIHRTIIYNGRNLHETTEAETHLHVVNGRLHSWSFRVR” is higher in protease stability score: -0.093 for the first, 0.885 for the second.

First: REDDERIDEMVELIFHWEQTGDEEKVYNNMDPHVRIDYNGRELHGWKKFTEELRLIYEEMRLKHIHISHQTIQGEKAIVHVELEGQVGDKRYIHRREIIVLKIDGKWIIKMVRFV
Second: TEDEEAFKENIRILLELTKTGDFKEMSKLLDPHVRIIINGKLFVGMEHADRLVRERNEEWRIESLEVEHLQSVDGQIHADTKMHVNINGVHRIHDTHQIVLKVNGRWFMEQIEIR
The protease stability score of the first is higher: 1.49 for the first, 1.01 for the second.

Going from “SEVREDIERILTQWSKIMETGDEHTAKRLADPHVKIEVDGRTSVGMETWMEFLRDLGFKVIHVRVHIEHVRDIDGKARVDIRLVIESNVGDKTERYEHETHMIIEKIDGRWVLTRILLK” to “DEIHKDAHRFVELLLRLLRTGDEDSIEKLMDPHAKININGQERIGREETIELALHWRNDDHHIHDMITINGRVDVHGRVKGEFDGRHQEFTFRLIVLKVNGRWVNESHHYI”, the protease stability score falls from 1.01 to 0.83.

First: DEEDEESHRLMRETIHLLLTGDEEVWAQLADPDVRVLFNGVDYHGREEFLRIWHHMVKEIRVDKHEIKTIEVQGDKVLSDIRMHVEFNGKRTKVRVNLRLQSINGRTKYLSIHIH
Second: DHEEKHLEHFLHLITHLEHTGDERTLEKLVDPHVRHEFNGKELHGRERAVRWSEELRQKMGADHWSIKRVNVFDGVVHLHTELEVNGVRVHFHIDVRVVDGRVKHIKIRNE
The protease stability score of the first is higher: 1.21 for the first, 0.861 for the second.

First: TENKRDLDLLIKLHLYLHKTGDWERLFKLMDPHARLEVGDFHIHGREEVIRWFVELMERVKNMRFDLQDRKVEVQGEKVIVRSDVEVNIDGVVIRVYLEVDSIKVDGKWHLHSERIELR
Second: DEIKESAEEAQRTWVHNSLTGNEEELSRNADPDVRVIIYVNGREIRLIGREFLEELMHRVKNLTIEVDEIRFQGDKIRFNERWTVNGVPRHVDLVMHKFNGKWHIHSINIHVV
The protease stability score of the first is higher: 1.29 for the first, 1.15 for the second.

First: TEEDELAHRFWELIRTSFLTGDEESLERLADPNVRLEIGDKELHGREQFSHIMREFVERFKNLRVRVEEERVVGDKAESIEDFHFNGQNLKVLTIVKKINGKWVIKSIVIKIE
Second: SEEEKRADEFNRRWVHKMQTGDEESLHELIDPNAKLHFEGHDEVGMQRVSHTIVKFFLEIRVHYIHITDARVYDGRLELDTRVDGEFNGKRDTLKIELYVLKVNGVWLLKELRVS
The protease stability score of the first is higher: 1.7 for the first, 1 for the second.

Going from “SEEEDESKLATELLIKLLRTGNEHLSERLMDPNMRIVVNGVELHGREEAQRHMREMITQIKNAKIEIRDERTQGEYIKVNMILHYGDKTIDLRVVLVKVDGRWKITEIVLN” to “DEDKKIWKHWLEIFVRWFLTGDFDKLRENADPNARSDINGKELHGMETFVEAMRELGFKHVEIHDVHIQGNKVHLDTRVLFDGQHHTTHLHVHIVNGRLKEISIEIR”, the protease stability score falls from 1.8 to 1.26.

Going from “DEEQHRMEEELRKMFEHLFTGDFKWLHKNVDPNARLDIGDKHVHGREAMVELIIRHVESLGVDHVKIRHVEVQGEKIEIRGESKVGDWKFSHHINVIVVDGVHKHFRIENR” to “SEERERVRKIHEWLVRFLETGDEESFNHLADPNMRLIVWYNGVNIVFIGRESWREFLRLFREEMRLHRIRVHHVDVQGEKVTSDTRNDGEVNGQRTEFETHVEVVLINGRLKLVLLEFK”, the protease stability score rises from 0.684 to 2.33.

Going from “DHVEEVVRQMVSHILRDYITGDEKSYASLMDPNMRLHIGDKDSIGREEVLRLIREHTRHLGIKHFHLHDVRIRIQGEYVEIKIDVHLEFNGRKFRVIIHLEMHKVNGRWRLHEETIEIE” to “DEEEESSHNALKYWMHSLITGDEHTIERLADPHVLMVVNGKTFHGMERFHEALHEFNERIDHIERIEIKDMKIFDGRVIVELKVHGRIGDKRHELETYLVILKYDGKWHLHSISVK”, the protease stability score falls from 2.61 to 0.964.

Compared with “DEWDEMLHEWAERIIKHFITGDWESFVKMADPHVRLHVDGKDFIGRERMEEAFKELLERLGVDHVELHHVRVINGQNDVDEDVKVGNKRLKVIHHLVVYNGRIKSIEIETR”, “SHEDELSRHILETWKEILDTGDEHTEHELADPNTRIEVDGRDIMGWHAWNHFLRKMGIKHIHFERVSIQGNKIHIDGIMEFDGRRRKTDIDLHVVNGRIESIRYEVK” is higher in protease stability score: 1.39 for the first, 1.63 for the second.

Going from “DDWEEVTRRSVEEFIRAIDTGDEDFLRTMVDPDTRVEINGVEVHGMEELMRLFSEHIKKVKNIRFHLEIRHVESQGDKIRIEGHEESNVDGRHRKKSTEMHWIKVDGRWFLHRVILR” to “SEEKEDAKIALTLLHEVIETGDERLFREMADPRVQIIVNGKELHGWKHFKEMLRILSERYDHMEIKFRDVRVVDGQVDSDVTINLHYDGREDQMEMDIIISKFDGRWFNHQVIFR”, the protease stability score falls from 1.39 to 1.34.
